Target: T1, rat FAPα on Expi293F cells (rat (Rattus norvegicus), UniProt P97321 1-761 (mouse entry))
T1 chain: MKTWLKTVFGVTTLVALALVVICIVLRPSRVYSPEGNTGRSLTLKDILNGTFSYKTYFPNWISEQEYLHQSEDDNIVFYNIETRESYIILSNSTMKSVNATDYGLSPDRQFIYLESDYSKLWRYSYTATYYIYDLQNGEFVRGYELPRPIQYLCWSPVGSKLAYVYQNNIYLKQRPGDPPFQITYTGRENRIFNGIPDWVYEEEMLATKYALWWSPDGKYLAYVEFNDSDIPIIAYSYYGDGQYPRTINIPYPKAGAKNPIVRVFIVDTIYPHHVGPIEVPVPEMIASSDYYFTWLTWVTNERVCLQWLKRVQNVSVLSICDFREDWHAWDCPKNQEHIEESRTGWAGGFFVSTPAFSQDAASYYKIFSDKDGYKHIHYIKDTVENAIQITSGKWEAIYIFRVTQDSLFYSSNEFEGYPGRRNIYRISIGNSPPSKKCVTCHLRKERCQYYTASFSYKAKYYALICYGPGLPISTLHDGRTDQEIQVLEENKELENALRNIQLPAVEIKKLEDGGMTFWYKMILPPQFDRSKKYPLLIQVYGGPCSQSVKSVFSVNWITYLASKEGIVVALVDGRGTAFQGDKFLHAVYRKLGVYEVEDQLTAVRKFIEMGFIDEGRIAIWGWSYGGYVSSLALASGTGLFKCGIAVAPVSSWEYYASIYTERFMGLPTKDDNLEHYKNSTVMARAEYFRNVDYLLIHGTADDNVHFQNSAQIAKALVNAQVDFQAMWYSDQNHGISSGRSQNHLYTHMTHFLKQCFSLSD
Test: flow cytometry on Expi293F cells transiently expressing rat FAPα, gMFI PE
Experimental: Binding of BisG1-FAPα-FERL/DR4-FERR, BisG1-FAPα-FEAL/b12-FEAR and IgG1-FAPα-FERL to FAPα of species commonly used for nonclinical toxicology studies was assessed by flow cytometry using Expi293F cells transiently expressing FAPα from different animal species. IgG1-b12 was included as negative control.
Expi293F cells expressing recombinant FAPα from various species (human, cynomolgus monkey, dog, pig, rat or mouse) were seeded (20,000 cells/well) in 96-Well round bottom plates (Greiner Bio-one, Cat #650101). Antibody dilutions were prepared using FACS buffer, consisting of PBS (Capricorn Scientific, Cat #PBS-10XA, diluted to 1×PBS in distilled water)+1% BSA (Roche, Cat #10735086001)+0.02% Sodium Azide (Bio-World, Cat #41920044-3). Plates were centrifuged, supernatant was removed, and cells were resuspended in 100 μL of antibody dilutions (concentration range 30-0.00017 μg/mL with three-fold serial dilutions using FACS buffer) of BisG1-FAPα-FERL/DR4-FERR, BisG1-FAPα-FEAL/b12-FEAR, IgG1-FAPα-FERL and IgG1-b12 and incubated for 30 min at 4° C. […] Antibody binding to viable cells (gMFI of PE on TO-PRO-3 negative cells) was analyzed by flow cytometry on a FACS Celesta and FACS_Diva software (first two experiments) or iQue® 3 and FlowJo software (last experiment). gMFI was determined and visualized using GraphPad Prism. Binding curves were analyzed using nonlinear regression analysis. […]

EC50 (read off the curve): ~0.2 µg/mL
B1: IgG1-FAPα-FERL (antibody)
heavy: EVQLLESGGGLVQPGGSPRLSCEASGFTFSSYALSWVRQAPGKGLEWVSAISGSGGGRYYADSVKGRFTISRDNSKNTLFLQMNSLRAEDTAVYYCAKEGYSSSGTYWDHWGQGTLVTVSSASTKGPSVFPLAPSSKSTSGGTAALGCLVKDYFPEPVTVSWNSGALTSGVHTFPAVLQSSGLYSLSSVVTVPSSSLGTQTYICNVNHKPSNTKVDKRVEPKSCDKTHTCPPCPAPEFERGPSVFLFPPKPKDTLMISRTPEVTCVVVDVSHEDPEVKFNWYVDGVEVHNAKTKPREEQYNSTYRVVSVLTVLHQDWLNGKEYKCKVSNKALPAPIEKTISKAKGQPREPQVYTLPPSREEMTKNQVSLTCLVKGFYPSDIAVEWESNGQPENNYKTTPPVLDSDGSFLLYSKLTVDKSRWQQGNVFSCSVMHEALHNHYTQKSLSLSPG
light: AIQMTQSPSSVSASVGDRVTITCRASQGVSSWLAWYQQKPGRAPKLLIYVASTLQSGVPSRFSGSGSGTDFTLTINSLQPEDFATYYCQQANSFPPTFGQGTRLEMKRTVAAPSVFIFPPSDEQLKSGTASVVCLLNNFYPREAKVQWKVDNALQSGNSQESVTEQDSKDSTYSLSSTLTLSKADYEKHKVYACEVTHQGLSSPVTKSFNRGEC
notes: Bivalent monoclonal IgG1 kappa

Source: patent publication US20250002610A1 (Genmab, published 2025)
